These results are taken from patent US8722637B2, “Methods and compositions of IG20 and DENN-SV splice variants” (The Board of Trustees of the University of Illinois, priority 2003, dated 2014).

Holding throughout (format): cell-based, human
In one assay the test system is PA-1 cells. Kind of assay: TRAIL-induced apoptosis in PA-1 cells (active caspase 3). The settings on record: TRAIL three hours. Here is the method:
FIG. 12: Effects of IG20 on PA-1 Cell Phenotypes. (A) Growth Rates. PA-1 and PA-1-IG20 cells were plated as described in Materials and Methods. Cells were then harvested and counted on the indicated days. Data are presented as mean+standard deviation of three plates for each sample. P values were <0.05 for all test groups. (B) TNFα-Induced Apoptosis. Cells were either untreated or treated with TNFα and cyclohexamide (CHX) for three hours, as described in Materials and Methods and then tested for percentages of cells with active caspase 3. (C) TRAIL-Induced Apoptosis. Cells were either untreated or treated with TRAIL for three hours and then tested for percentages of cells with active caspase 3, in the presence or absence of Z-VAD, an inhibitor of caspase activation. (D) Response to […] and TRAIL Treatment. PA-1-IG20 cells exposed to 6 and 12Gy of […] were plated as described in Materials and Methods. Twenty-four hours later, cells were either untreated or treated with TRAIL for 3 hours. All cells were then harvested and tested for levels of active caspase 3. (E) TNFα- and TRAIL-Induced NFκB Activation. Cells transfected with the NFκB-luciferase reporter were serum-deprived and then subjected to mock, TNFα, TRAIL or zVAD treatments for 5 hours. Cells were then lysed and tested for levels of luciferase activity. […]

Another assay relates to HeLa IG20 cells. Description: TRAIL or TNF-α/cycloheximide induced apoptosis in HeLa IG20 cells (caspase activation, TMRE, Hoechst). The conditions noted are these: 5 hours; TRAIL 100 ng/mL, or 10 ng/mL TNF-α and 10 μg/mL cycloheximide. On the procedure:
FIG. 13: IG20 transfected HeLa cells show increased apoptosis upon TRAIL treatment. HeLa-IG20 and control cells were treated for 5 hours with TRAIL at 100 ng/mL or with 10 ng/mL of TNF-α and 10 μg/mL of Cycloheximide and analyzed for apoptosis. A) Activation of caspases—cells were incubated for 10 minutes with FITC labeled general caspase inhibitor VAD FMK (Val-Ala-Asp-flouromethyl ketone) and analyzed by FACS. Numbers in the histogram indicate percentage of FITC positive cells. B) Mitochondrial Depolarization—Loss of the dye TMRE is indicative of mitochondrial depolarization and the numbers shown in the FACS histograms represent percentage of TMRE negative cells. All the above experiments were done in triplicates and results shown are representative histograms. […] D) Percentage of cells with condensed chromatin was calculated by counting 3 fields containing at least 200 cells each and error bars indicate mean±S.D.
Mitochondrial depolarization and chromatin condensation—2×10^5 HeLa IG20 and Vector control cells were plated into a 12-well culture dish and allowed to grow for 48 hours. […] Cells were assessed for loss of mitochondrial membrane potential by staining with tetramethylrhodamine ethyl ester (100 nm, Molecular Probes, Eugene, Oreg.) for 10 minutes, washed once with ice-cold PBS, collected and subjected to FACS analysis. […]

In another assay the test system is caspase-3. Kind of assay: Caspase-3 activation in HeLa IG20 cells. The conditions noted are these: 5 hours; TRAIL, or TNF-α and cycloheximide. On the procedure:
FIG. 15: IG20 Cells show increased specific activation of caspases upon TRAIL treatment A) Initiator caspases—Hela IG20 cells and control cells treated with TRAIL for 1H, were stained, with flourochrome-conjugated peptide inhibitors of specific active caspases as indicated, fixed and analyzed by FACS. B) Caspase-8 cleavage—IG20 HeLa cells and control cells were treated with TRAIL for either 1H or 3H, lysed and immunoblotted for the 10 kDa cleaved product of active caspase-8 using the 6B6 monoclonal antibody. […]
Caspase activation—To assess the general activation of caspases, cells were stained with FITC tagged caspase inhibitor Val-Ala-Asp-flouromethyl ketone Promega, Madison, Wis.) for 10 minutes at 37° C., washed and analyzed by FACS for percentage of FITC positive cells. The initiator caspases were analyzed by using carboxyflourescein labeled peptide flouromethlyketone inhibitors (FAM-peptide-FMK) directed against active caspase-8, 9 and 10 (APOLOGIX caspase detection kit, Cell Tech Inc., Minneapolis, Minn.). […] Cells were collected, washed once, resuspended in Perm/wash buffer and analyzed by FACS for PE positive population. […]

Assay [1] has as its system HeLa IG20 and control cells. Description: Inhibition of TRAIL induced apoptosis by caspase inhibitors and DN-FADD (active caspase-3). The settings on record: control and HeLa IG20 cells transfected with inhibitor; TRAIL 100 ng/mL 5 hours. Here is the method:
FIG. 16. IG 20 enhanced apoptosis can be inhibited by caspase inhibitors and DN FADD HeLaIG20 and control cells (1×10^5 per well in a 6 well plate) were co-transfected with GFP-F vector along with either Crm A, p35 or DN-FADD in the ratio of 1:10. Twenty-four hours post transfection, TRAIL was added at a concentration of 100 ng/mL for 5 hours and both treated and untreated cells were stained with PE-conjugated anti-caspase3 antibodies and subjected to FACS analyses. The data were obtained from only GFP positive cells and represent 2 independent experiments carried out in duplicate.
Transfection with dominant negative FADD, CrmA and p35 constructs—Control vector and IG20 stably transfected HeLa cells were plated at 5×10^5 overnight and the dominant negative FADD, Crm A and p35 constructs were co-transfected (2 μg each) with farnesylated EGFP at a ratio of 1:5. Equal numbers of wells were co-transfected with an appropriate control vector along with EGFP-F at the same ratio. The transfected cells were left untreated or treated with the TRAIL, or with TNF-α and cycloheximide, for 5 hours and cells were collected and stained for active caspase-3 (anti caspase-3 antibody) and subjected to FACS analysis to detect active caspase-3 staining in GFP-positive cells.

B1: TRAIL: recombinant human TRAIL, TNF Related Apoptosis Inducing Ligand, purchased from Peprotech (protein, UniProt P50591 1-281, looked up)
Tumor necrosis factor ligand …: MAMMEVQGGPSLGQTCVLIVIFTVLLQSLCVAVTYVYFTNELKQMQDKYSKSGIACFLKEDDSYWDPNDEESMNSPCWQVKWQLRQLVRKMILRTSEETISTVQEKQQNISPLVRERGPQRVAAHITGTRGRSNTLSSPNSKNEKALGRKINSWESSRSGHSFLSNLHLRNGELVIHEKGFYYIYSQTYFRFQEEIKENTKNDKQMVQYIYKYTSYPDPILLMKSARNSCWSKDAEYGLYSIYQGGIFELKENDRIFVSVTNEHLIDMDHEASFFGAFLVG
With B1, the TRAIL-induced apoptosis entry in the assay with PA-1 cells (PA-1-IG20 cells) is listed as “highly susceptible to TRAIL-induced apoptosis”; in the assay with PA-1 cells (PA-1 cells) it was “almost completely resistant”. In addition, the “Increase in cells undergoing apoptosis, HeLa IG20 versus control cells” value in the assay on HeLa IG20 cells was 3-3.5 fold. For the same molecule, the “Relative increase in caspase-3 activation, HeLa IG20 relative to control cells” value with caspase-3 was “five fold increase”.

B2: p35: baculovirus derived general caspase inhibitor (protein, UniProt P08160 1-299, looked up)
Early 35 kDa protein: MCVIFPVEIDVSQTIIRDCQVDKQTRELVYINKIMNTQLTKPVLMMFNISGPIRSVTRKNNNLRDRIKSKVDEQFDQLERDYSDQMDGFHDSIKYFKDEHYSVSCQNGSVLKSKFAKILKSHDYTDKKSIEAYEKYCLPKLVDERNDYYVAVCVLKPGFENGSNQVLSFEYNPIGNKVIVPFAHEINDTGLYEYDVVAYVDSVQFDGEQFEEFVQSLILPSSFKNSEKVLYYNEASKNKSMIYKALEFTTESSWGKSEKYNWKIFCNGFIYDKKSKVLYVKLHNVTSALNKNVILNTIK
As to B2, the “Effect on TRAIL induced apoptosis (active caspase-3)” value in assay [1] was “abrogated TRAIL induced apoptosis”.
